Laboratory results from US7439329B2, “GEF-H1b: biomarkers, complexes assays and therapeutic uses thereof” (Sugen, Inc., priority 2002, dated 2008).

Legend:
GEF-H1S [1] = target: T1, GEF-H1S (Homo sapiens, UniProt Q92974, INS962GETLAETWTR); experiment: Pull-down of GEF-H1 with PAK4 domains and biotinylated PAK4 peptides; type: binding; details: biotinylated PAK4 peptides linked to streptavidin beads
T1 sequence (Q92974 with tags, fused parts or gaps): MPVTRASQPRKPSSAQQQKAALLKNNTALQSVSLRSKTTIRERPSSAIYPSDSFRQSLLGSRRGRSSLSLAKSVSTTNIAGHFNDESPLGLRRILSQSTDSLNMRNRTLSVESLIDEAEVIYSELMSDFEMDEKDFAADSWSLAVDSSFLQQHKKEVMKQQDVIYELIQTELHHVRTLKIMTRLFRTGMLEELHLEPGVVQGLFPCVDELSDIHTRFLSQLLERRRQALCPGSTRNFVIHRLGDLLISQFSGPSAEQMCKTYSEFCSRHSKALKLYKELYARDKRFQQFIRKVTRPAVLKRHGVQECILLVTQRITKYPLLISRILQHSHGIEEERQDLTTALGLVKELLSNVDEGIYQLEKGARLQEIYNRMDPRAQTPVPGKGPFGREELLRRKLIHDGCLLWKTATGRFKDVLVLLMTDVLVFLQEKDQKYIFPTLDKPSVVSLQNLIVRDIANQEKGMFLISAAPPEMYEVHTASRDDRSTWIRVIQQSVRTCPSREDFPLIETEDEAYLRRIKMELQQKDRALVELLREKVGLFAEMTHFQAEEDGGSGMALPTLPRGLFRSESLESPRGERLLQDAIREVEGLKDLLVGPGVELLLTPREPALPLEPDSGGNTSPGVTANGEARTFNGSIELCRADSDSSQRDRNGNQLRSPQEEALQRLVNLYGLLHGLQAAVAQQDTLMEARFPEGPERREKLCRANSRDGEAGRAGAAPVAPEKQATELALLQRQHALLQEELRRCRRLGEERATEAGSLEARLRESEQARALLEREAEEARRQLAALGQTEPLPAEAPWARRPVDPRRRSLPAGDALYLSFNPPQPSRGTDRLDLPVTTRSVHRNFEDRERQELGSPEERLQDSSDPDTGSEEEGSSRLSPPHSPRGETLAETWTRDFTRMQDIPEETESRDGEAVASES
Experimental: (§1) FIG. 1: (SEQ ID NOs 32-34 respectively in order of appearance) Direct binding of GEF-H1 to PAK4. Lysates were prepared from 293T cells over expressing (a) myc tagged PAK4 alleles or subdomains and incubated with GST, GST-GEF-H1 (787-921) and GST-Maguin-like bound to Glutathione beads (1,2,3,4 bead designation) or (b) GFP-GEF-H1 and incubated with PAK4 biotinylated peptides (291-355) and (276-324) linked to streptavidin beads. An equivalent amount of beads and excess lysates (500 ug) were used. Eluates of beads and total lysates were analysed by SDS-PAGE and immunoblotted with myc or GEF-H1 antiserum; (c) represents a PAK4 gene schematic outlining the regions of PAK4 used to identify the GEF-H1 interaction domain (GID). d, alignment of the GID defined by the minimal binding region of PAK4 with PAK5 and PAK6.
(§2) To confirm the in vitro interaction of GEF-H1S with PAK4, bacterially expressed GST-fusion proteins were generated with the identical sequences isolated by phage display, encoding either amino acids 763-921 of GEF-H1S or amino acids 385-555 from the Maguin-2-like protein. These fusion proteins were bound to glutathione beads and utilized in binding assays with 293T lysates expressing exogenous PAK4.
(§3) Biotinylated peptides derived from the N-terminal region of PAK4 sequence were used to further map the GEF-H1 binding site. […]

GEF-H1S [2] = target: T2, GEF-H1S (Homo sapiens, UniProt Q92974, INS962GETLAETWTR); experiment: as above; type: binding; details: PAK4 domain expressed in 293T lysate; GST-GEF-H1S (aa763-921) on glutathione beads
T2 sequence (Q92974 with tags, fused parts or gaps): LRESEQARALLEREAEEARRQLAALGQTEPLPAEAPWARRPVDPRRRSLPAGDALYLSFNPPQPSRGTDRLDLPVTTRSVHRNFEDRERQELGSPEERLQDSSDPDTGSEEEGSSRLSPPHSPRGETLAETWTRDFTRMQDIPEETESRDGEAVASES
Experimental: as §1, §2, §3

GEF-H1S [3] = experiment: Co-transfection of GEF-H1S and PAK4 alleles, Western blot with phospho-specific GEF-H1 antibodies; type: cell-based, human
Experimental: To confirm that GEF-H1S phosphorylation by PAK4 occurs at these sites in vivo, co-transfection assays were performed and analyzed phosphorylation of GEF-H1 by use of a phospho-specific antibody directed against phospho-serine 810. This antibody is specific for GEF-H1 that is phosphorylated on Ser 810. […] Expression of the kinase-dead PAK4 is also able to inhibit endogenous PAK4 basal phosphorylation of GEF-H1S on Ser 810.
In this experiment GEF-H1S expression vector was pRSV/Rc and the PAK4 expression vector was pcDNA. Lysates were prepared from the transfected 293T cells and analyzed by Western Blot using the anti-1009 reagent. […] These phosphospecific antibodies can be used to detect PAK4 activity in tumors by virtue of its specific phosphorylation of GEF-H1.

[4] = co-expression with GEF-H1S in mammalian (293T) cells, anti-1009 Western blot, relative to basal phosphorylation

B1: amino acids 291-355: biotinylated PAK4 peptide covering a more C-terminal region (peptide, UniProt O96013 291-355, looked up, fragment)
chain: SPQREPQRVSHEQFRAALQLVVDPGDPRSYLDNFIKIGEGSTGIVCIATVRSSGKLVAVKKMDLR
modifications: biotin
notes: biotinylated PAK4 peptide covering a more C-terminal region
- interaction with GEF-H1S (GEF-H1S [1]): did not

B2: amino acids 1-309: amino-terminal regulatory domain of PAK4 alone (protein, UniProt O96013 1-309, looked up, fragment)
chain: MFGKRKKRVEISAPSNFEHRVHTGFDQHEQKFTGLPRQWQSLIEESARRPKPLVDPACITSIQPGAPKTIVRGSKGAKDGALTLLLDEFENMSVTRSNSLRRDSPPPPARARQENGMPEEPATTARGGPGKAGSRGRFAGHSEAGGGSGDRRRAGPEKRPKSSREGSGGPQESSRDKRPLSGPDVGTPQPAGLASGAKLAAGRPFNTYPRADTDHPSRGAQGEPHDVAPNGPSAGGLAIPQSSSSSSRPPTRARGAPSPGVLGPHASEPQLAPPACTPAAPAVPGPPGPRSPQREPQRVSHEQFRAALQ
- interaction with GEF-H1S (GEF-H1S [2]): did not stably interact

B3: S474E: activated PAK4 mutant (protein)
chain: MFGKRKKRVEISAPSNFEHRVHTGFDQHEQKFTGLPRQWQSLIEESARRPKPLVDPACITSIQPGAPKTIVRGSKGAKDGALTLLLDEFENMSVTRSNSLRRDSPPPPARARQENGMPEEPATTARGGPGKAGSRGRFAGHSEAGGGSGDRRRAGPEKRPKSSREGSGGPQESSRDKRPLSGPDVGTPQPAGLASGAKLAAGRPFNTYPRADTDHPSRGAQGEPHDVAPNGPSAGGLAIPQSSSSSSRPPTRARGAPSPGVLGPHASEPQLAPPACTPAAPAVPGPPGPRSPQREPQRVSHEQFRAALQLVVDPGDPRSYLDNFIKIGEGSTGIVCIATVRSSGKLVAVKKMDLRKQQRRELLFNEVVIMRDYQHENVVEMYNSYLVGDELWVVMEFLEGGALTDIVTHTRMNEEQIAAVCLAVLQALSVLHAQGVIHRDIKSDSILLTHDGRVKLSDFGFCAQVSKEVPRRKELVGTPYWMAPELISRLPYGPEVDIWSLGIMVIEMVDGEPPYFNEPPLKAMKMIRDNLPPRLKNLHKVSPSLKGFLDRLLVRDPAQRATAAELLKHPFLAKAGPPASIVPLMRQNRTR
- phosphorylation of GEF-H1S on Ser 810 (GEF-H1S [3]; [4]): marked increase
- phosphorylation of GEF-H1S on Ser 810 (GEF-H1S [3]; co-expression with GEF-H1S in mammalian (293T) cells, anti-1009 Western blot, relative to basal phosphorylation, listed as activated PAK4): enhanced
- phosphorylation of GEF-H1S on Ser 67 (GEF-H1S [3]; co-transfection with GEF-H1S, phospho-specific antibodies against Ser 67): stimulated phosphorylation

B4: PAK4 kinase dead K350,351A: kinase inactive PAK4 mutant (protein, UniProt O96013 1-591, looked up, variant K350A K351A)
Serine/threonine-protein …: MFGKRKKRVEISAPSNFEHRVHTGFDQHEQKFTGLPRQWQSLIEESARRPKPLVDPACITSIQPGAPKTIVRGSKGAKDGALTLLLDEFENMSVTRSNSLRRDSPPPPARARQENGMPEEPATTARGGPGKAGSRGRFAGHSEAGGGSGDRRRAGPEKRPKSSREGSGGPQESSRDKRPLSGPDVGTPQPAGLASGAKLAAGRPFNTYPRADTDHPSRGAQGEPHDVAPNGPSAGGLAIPQSSSSSSRPPTRARGAPSPGVLGPHASEPQLAPPACTPAAPAVPGPPGPRSPQREPQRVSHEQFRAALQLVVDPGDPRSYLDNFIKIGEGSTGIVCIATVRSSGKLVAVAAMDLRKQQRRELLFNEVVIMRDYQHENVVEMYNSYLVGDELWVVMEFLEGGALTDIVTHTRMNEEQIAAVCLAVLQALSVLHAQGVIHRDIKSDSILLTHDGRVKLSDFGFCAQVSKEVPRRKSLVGTPYWMAPELISRLPYGPEVDIWSLGIMVIEMVDGEPPYFNEPPLKAMKMIRDNLPPRLKNLHKVSPSLKGFLDRLLVRDPAQRATAAELLKHPFLAKAGPPASIVPLMRQNRTR
- phosphorylation of GEF-H1S on Ser 810 (GEF-H1S [3]; [4]): marked decrease
- phosphorylation of GEF-H1S on Ser 810 (GEF-H1S [3]; co-expression with GEF-H1S in mammalian (293T) cells, anti-1009 Western blot, relative to basal phosphorylation, listed as kinase-dead PAK4): inhibit

B5: wild type PAK4 (1-591): wild type p-21-activated kinase 4 expressed from pcDNA (protein)
chain: MFGKRKKRVEISAPSNFEHRVHTGFDQHEQKFTGLPRQWQSLIEESARRPKPLVDPACITSIQPGAPKTIVRGSKGAKDGALTLLLDEFENMSVTRSNSLRRDSPPPPARARQENGMPEEPATTARGGPGKAGSRGRFAGHSEAGGGSGDRRRAGPEKRPKSSREGSGGPQESSRDKRPLSGPDVGTPQPAGLASGAKLAAGRPFNTYPRADTDHPSRGAQGEPHDVAPNGPSAGGLAIPQSSSSSSRPPTRARGAPSPGVLGPHASEPQLAPPACTPAAPAVPGPPGPRSPQREPQRVSHEQFRAALQLVVDPGDPRSYLDNFIKIGEGSTGIVCIATVRSSGKLVAVKKMDLRKQQRRELLFNEVVIMRDYQHENVVEMYNSYLVGDELWVVMEFLEGGALTDIVTHTRMNEEQIAAVCLAVLQALSVLHAQGVIHRDIKSDSILLTHDGRVKLSDFGFCAQVSKEVPRRKSLVGTPYWMAPELISRLPYGPEVDIWSLGIMVIEMVDGEPPYFNEPPLKAMKMIRDNLPPRLKNLHKVSPSLKGFLDRLLVRDPAQRATAAELLKHPFLAKAGPPASIVPLMRQNRTR
- phosphorylation of GEF-H1S on Ser 810 (GEF-H1S [3]; co-expressed with Cdc42): enhanced
- phosphorylation of GEF-H1S on Ser 810 (GEF-H1S [3]; [4]): marked increase
